Experimental data: patent US20230050440A1 (Seagen, published 2023)
Positions count from the first letter of the chain named.

T1: human TIGIT expressed on cells (human, UniProt Q495A1 22-244)
T1 construct: HEK 293 cells stably expressing human TIGIT, primary human T cells or Jurkat effector cells; the cell is named under assay; also called Human TIGIT HEK
T1 sequence: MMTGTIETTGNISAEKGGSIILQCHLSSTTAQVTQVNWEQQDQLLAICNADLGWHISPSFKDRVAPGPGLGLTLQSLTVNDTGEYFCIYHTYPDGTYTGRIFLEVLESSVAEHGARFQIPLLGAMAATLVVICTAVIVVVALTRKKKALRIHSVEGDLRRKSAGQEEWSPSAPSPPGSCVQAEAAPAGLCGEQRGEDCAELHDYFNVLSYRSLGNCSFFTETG

T2: monomeric human TIGIT (Sino Biological 10917-H08H) (human, UniProt Q495A1 22-138, biotinylated in the MSD-SET assay)
T2 construct: Bought protein; also called Human TIGIT monomer; Human TIGIT-His; not shown: His tag
T2 sequence: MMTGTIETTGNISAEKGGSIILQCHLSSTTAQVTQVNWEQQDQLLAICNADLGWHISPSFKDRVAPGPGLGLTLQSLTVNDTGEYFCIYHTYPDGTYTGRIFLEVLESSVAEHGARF

T3: recombinant dimeric human TIGIT-Fc (Acro Biosystems TIT-H5254) (human, UniProt Q495A1 22-141)
T3 construct: Bought protein; also called hTIGIT-Fc; not shown: Fc part of the bought fusion protein
T3 sequence: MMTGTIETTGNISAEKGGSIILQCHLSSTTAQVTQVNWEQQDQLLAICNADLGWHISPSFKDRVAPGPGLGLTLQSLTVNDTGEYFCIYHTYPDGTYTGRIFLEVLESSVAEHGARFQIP

B1: Clone 16 (antibody, V domains shown)
VH: QVQLVQSGAEVKKPGSSVKVSCKASGGTFSSYAISWVRQAPGQGLEWMGGIIPIFGTASYAQKFQGRVTITADESTSTAYMELSSLRSEDTAVYYCARQSTWHKLYGTDVWGQGTTVTVSS
VL: DIQMTQSPSSVSASVGDRVTITCRASQGISSWLAWYQQKPGKAPKLLIYAASSLQSGVPSRFSGSGSGTDFTLTISSLQPEDFATYYCQQGDSLPPTFGGGTKVEIK
notes: Fully human IgG produced in yeast
B2: Clone 2 (antibody, V domains shown)
VH: EVQLVESGGGLVQPGGSLRLSCAASGFTFSDHYMDWVRQAPGKGLEWVGRTRNKANSYTTEYAASVKGRFTISRDDSKNSLYLQMNSLKTEDTAVYYCARGQYYYGSSSRGYYYMDVWGQGTTVTVSS
VL: EIVLTQSPGTLSLSPGERATLSCRASQSVSSSYLAWYQQKPGQAPRLLIYGASSRATGIPDRFSGSGSGTDFTLTISRLEPEDFAVYYCQQAVPSPLTFGGGTKVEIK
notes: Fully human IgG produced in yeast; also called anti-TIGIT antibody clone 2
B3: Clone 54 (antibody, V domains shown)
VH: QVQLVQSGAEVKKPGASVKVSCKASGYTFTSYYMHWVRQAPGQGLEWMGIINPSGGSTSYAQKFQGRVTMTRDTSTSTVYMELSSLRSEDTAVYYCARASDSYGVGLYYGMDVWGQGTTVTVSS
VL: B2 VL with S30R, A92Y, V93Y, P94V
notes: as for B1
B4: Clone 25 (antibody, V domains shown)
VH: QVQLVQSGAEVKKPGASVKVSCKASGYTFTSYAISWVRQAPGQGLEWMGWISAYNGNTNYAQKLQGRVTMTTDTSTSTAYMELRSLRSDDTAVYYCARDLSSFWSGDVLGAFDIWGQGTMVTVSS
VL: DIQMTQSPSSLSASVGDRVTITCRASQSISSYLNWYQQKPGKAPKLLIYAASSLQSGVPSRFSGSGSGTDFTLTISSLQPEDFATYYCQQSVPPRTFGGGTKVEIK
notes: Fully human IgG produced in yeast; also called anti-TIGIT clone 25
B5: anti-TIGIT clone 13 mIgG1 (antibody)
heavy: QVQLVQSGAEVKKPGSSVKVSCKASGGTFSSYAISWVRQAPGQGLEWMGSIIPIFGTANYAQKFQGRVTITADESTSTAYMELSSLRSEDTAVYYCARGPSEVGAILGYVWFDPWGQGTLVTVSSAKTTPPSVYPLAPGSAAQTNSMVTLGCLVKGYFPEPVTVTWNSGSLSSGVHTFPAVLESDLYTLSSSVTVPSSPRPSETVTCNVAHPASSTKVDKKIVPRDCGCKPCICTVPEVSSVFIFPPKPKDVLTITLTPKVTCVVVDISKDDPEVQFSWFVDDVEVHTAQTQPREEQFNSTFRSVSELPIMHQDWLNGKEFKCRVNSAAFPAPIEKTISKTKGRPKAPQVYTIPPPKEQMAKDKVSLTCMITDFFPEDITVEWQWNGQPAENYKNTQPIMNTNGSYFVYSKLNVQKSNWEAGNTFTCSVLHEGLHNHHTEKSLSHSPGK
light: not shown
notes: also called c13 mIgG1; 13-1
B6: Clone 25D (antibody, V domains shown)
VH: B4 VH with A33P, S35G, A53S, S101K
VL: B4 VL
B7: Clone 25E (antibody, V domains shown)
VH: B4 VH with S35A, D99S, L100G
VL: B4 VL
B8: Clone 18 (antibody, V domains shown)
VH: QVQLVQSGAEVKKPGASVKVSCKASGYTFTSYYMSWVRQAPGQGLEWMGIINPSGGSTSYAQKFQGRVTMTRDTSTSTVYMELSSLRSEDTAVYYCARVRYGYADGMDVWGQGTTVTVSS
VL: B1 VL with V11L, G28S, W32Y, A34N, A50G, G91V, D92Y, S93H, P96F
notes: as for B1
B9: Clone 14 (antibody, V domains shown)
VH: QVQLVQSGAEVKKPGSSVKVSCKASGGTFSSYAISWVRQAPGQGLEWMGSIIPIFGTANYAQKFQGRVTITADESTSTAYMELSSLRSEDTAVYYCARGPSEVGAILGYVWFDPWGQGTLVTVSS
VL: not shown
notes: as for B1
B10: Clone 22 (antibody, V domains shown)
VH: QVQLQESGPGLVKPSETLSLTCAVSGYSISSGYYWAWIRQPPGKGLEWIGSIYHSGSTYYNPSLKSRVTISVDTSKNQFSLKLSSVTAADTAVYYCARQGYYYGSSGSVDFDLWGRGTLVTVSS
VL: DIQMTQSPSSVSASVGDRVTITCRASQGISSWLAWYQQKPGKAPKLLIYAASNLQSGVPSRFSGSGSGTDFTLTISSLQPEDFATYYCQQANSLPPWTFGGGTKVEIK
notes: as for B1
B11: Clone 21 (antibody, V domains shown)
VH: QLQLQESGPGLVKPSETLSLTCTVSGGSISSSSYYWGWIRQPPGKGLEWIGSIYYSGSTYYNPSLKSRVTISVDTSKNQFSLKLSSVTAADTAVYYCARDPLYQDAPFDYWGQGTLVTVSS
VL: EIVLTQSPATLSLSPGERATLSCRASQSVSSYLAWYQQKPGQAPRLLIYDASNRATGIPARFSGSGSGTDFTLTISSLEPEDFAVYYCQQRANFPTFGGGTKVEIK
notes: as for B1
B12: Clone 3 (antibody, V domains shown)
VH: B2 VH
VL: EIVLTQSPGTLSLSPGERATLSCRASQSVRSSYLAWYQQKPGQAPRLLIYGASSRATGIPDRFSGSGSGTDFTLTISRLEPEDFAVYYCQQVGPPLTFGGGTKVEIK
notes: as for B1
B13: Clone 27 (antibody, V domains shown)
VH: B4 VH
VL: EIVMTQSPATLSVSPGERATLSCRASQSVSSNLAWYQQKPGQAPRLLIYGASTRATGIPARFSGSGSGTEFTLTISSLQSEDFAVYYCQQHANHITFGGGTKVEIK
notes: as for B1

target: T4, cynomolgus monkey TIGIT expressed on cells (cynomolgus monkey); assay: flow cytometry titration, HEK 293 cells expressing cynomolgus TIGIT
T4 construct: HEK 293 cells stably expressing cynomolgus monkey TIGIT or cynomolgus T cells; also called Cyno TIGIT HEK
T4 sequence (chain, as listed by the source limits assumed): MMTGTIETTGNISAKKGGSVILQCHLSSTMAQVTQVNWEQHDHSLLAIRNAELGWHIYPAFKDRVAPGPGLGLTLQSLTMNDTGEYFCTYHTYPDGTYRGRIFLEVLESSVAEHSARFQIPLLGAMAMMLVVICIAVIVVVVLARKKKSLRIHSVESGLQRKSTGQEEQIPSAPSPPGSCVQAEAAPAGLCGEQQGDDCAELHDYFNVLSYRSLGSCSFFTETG
Protocol: (§1) HEK 293 cells were engineered to stably express high levels of human, mouse or cynomolgus monkey TIGIT by lentiviral transduction. […] Samples were analyzed on a CytoFLEX flow cytometer. Median fluorescence intensity of the FSC/SSC gated population was determined for each antibody concentration. NonLinear regression of Log(X) transformed data was used to generate EC50 values in GraphPad Prism 6.

Row | EC50 | Binder
1 | 0.1 µg/mL | B1
2 | 0.32 µg/mL | B2
3 | 11.4 µg/mL | B3
4 | 0.19 µg/mL | B4

target: T1, human TIGIT expressed on cells; assay: flow cytometry titration, HEK 293 cells expressing human TIGIT

Row | EC50 | Binder
5 | 0.05 µg/mL | B5

target: T1, human TIGIT expressed on cells; assay: flow cytometry competition with human CD155-Fc on 293-hTIGIT cells

Row | IC50 (read off the curve) | Binder
6 | ~0.1 µg/mL | B5

target: T4, cynomolgus monkey TIGIT expressed on …; assay: flow cytometry titration, HEK 293 cells expressing cynomolgus TIGIT; remark: another data set of the same source

Row | EC50 | Binder
7 | 0.07 µg/mL | B5

target: T2, monomeric human TIGIT (Sino Biological …); assay: BLI (ForteBio), IgG on sensor, monovalent
Protocol: (§2) Briefly, ForteBio affinity measurements were performed by loading IgGs on-line onto AHQ sensors. Sensors were equilibrated off-line in assay buffer for 30 minutes and then monitored on-line for 60 seconds for baseline establishment. Sensors with loaded IgGs were exposed to 100 nM antigen (dimeric Fc-fusion antigen or monomeric antigen) for 3 minutes, and afterwards were transferred to assay buffer for 3 minutes for off-rate measurement. All binding and dissociation kinetics were analyzed using the 1:1 binding model.
The optimized antibodies were also tested for ligand blocking in a CD155 ligand competition assay, and for binding to human TIGIT HEK, cyno TIGIT HEK, mouse TIGIT HEK, and parental HEK cell lines, as described above.

Row | Kd | Binder
8 | 2.52 nM | B1
9 | 8.18 nM | B2
10 | 1.27 nM | B4
11 | 0.846 nM | B6
12 | 0.851 nM | B7

target: T1, human TIGIT expressed on cells; assay: flow cytometry titration, HEK 293 cells expressing human TIGIT; remark: another data set of the same source
Protocol: as §1

Row | EC50 | Binder
13 | 0.07 µg/mL | B1
14 | 0.15 µg/mL | B2
15 | 0.11 µg/mL | B3
16 | 0.14 µg/mL | B4

target: T5, cyno TIGIT-Fc (cynomolgus monkey); assay: BLI (ForteBio), IgG on sensor, avid
T5 construct: not shown: Fc part
T5 sequence (chain, as listed by the source limits assumed): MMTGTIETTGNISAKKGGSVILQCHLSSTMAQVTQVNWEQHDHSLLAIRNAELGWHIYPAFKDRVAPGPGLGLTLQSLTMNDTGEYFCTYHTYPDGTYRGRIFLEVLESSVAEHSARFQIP

Row | Kd | Binder
17 | 4.67 nM | B1
18 | 1.34 nM | B2
19 | 1.5 nM | B4
20 | 1.18 nM | B6
21 | 1.18 nM | B7

target: T2, monomeric human TIGIT (Sino Biological …); assay: MSD-SET solution equilibrium titration, biotinylated antigen at 50 pM
Protocol: Antibodies (20 nM in PBS) were coated onto standard bind MSD-ECL plates overnight at 4° C. or at room temperature for 30 min. Plates were then blocked with 1% BSA for 30 min with shaking at 700 rpm, followed by three washes with wash buffer (PBSF+0.05% Tween 20). SET samples were applied and incubated on the plates for 150s with shaking at 700 rpm followed by one wash. Antigen captured on a plate was detected with 250 ng/ml sulfotag-labeled streptavidin in PBSF by incubation on the plate for 3 min. The plates were washed three times with wash buffer and then read on the MSD Sector Imager 2400 instrument using 1× Read Buffer T with surfactant. The percent free antigen was plotted as a function of titrated antibody in Prism and fit to a quadratic equation to extract the KD. To improve throughput, liquid handling robots were used throughout MSD-SET experiments, including SET sample preparation.

Row | Kd | Binder
22 | 0.027 nM | B6
23 | 0.013 nM | B7

target: T2, monomeric human TIGIT (Sino Biological …); assay: BLI (ForteBio Octet RED384), IgG on AHQ sensor, 100 nM antigen, 1:1 model
Protocol: as §2

Row | Kd | Binder
24 | 2.06 nM | B1
25 | 50.8 nM | B8
26 | 58.7 nM | B9
27 | 13.8 nM | B10
28 | 2.18 nM | B11
29 | 10.1 nM | B2
30 | 73.6 nM | B12
31 | 3.49 nM | B3
32 | 0.618 nM | B4
33 | 2.32 nM | B13

target: T3, recombinant dimeric human TIGIT-Fc …; assay: as above
Protocol: as §2

Row | Kd | Binder
34 | 0.69 nM | B1
35 | 2.39 nM | B8
36 | 2.01 nM | B9
37 | 0.79 nM | B10
38 | 0.585 nM | B11
39 | 0.956 nM | B2
40 | 2.77 nM | B12
41 | 0.689 nM | B3
42 | 0.62 nM | B4
43 | 0.558 nM | B13

target: T1, human TIGIT expressed on cells; assay: flow cytometry on HEK 293 cells expressing the target, MFI over parental HEK 293;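 further: bound antibody detected with PE-labelled anti-human IgG, 15 min on ice. FOB equals median fluorescence on TIGIT-positive cells divided by that on target-negative cells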
Protocol: (§3) HEK 293 cells were engineered to stably express high levels of human, mouse or cynomolgus monkey TIGIT by lentiviral transduction. […] Cells were then washed twice with wash buffer and incubated with anti-human IgG conjugated to PE for 15 minutes on ice. Cells were then washed twice with wash buffer and analyzed by flow cytometry on a FACS Canto II instrument (BD Biosciences). Fold over background (FOB) was calculated as the median fluorescence intensity (MFI) of the anti-TIGIT clone bound to target-positive cells divided by the MFI of the anti-TIGIT clone bound to target-negative cells.

Row | FOB (Fold Over Background) | Binder
44 | 192 fold | B1
45 | 158 fold | B2
46 | 205 fold | B4
47 | 225 fold | B6
48 | 204 fold | B7

target: T4, cynomolgus monkey TIGIT expressed on …; assay: as above
Protocol: as §3

Row | FOB (Fold Over Background) | Binder
49 | 27 fold | B1
50 | 162 fold | B2
51 | 247 fold | B4
52 | 272 fold | B6
53 | 252 fold | B7

target: T1, human TIGIT expressed on cells; assay: flow cytometry competition with human CD112-Fc on 293-hTIGIT cells

Row | IC50 (read off the curve) | Binder
54 | ~0.04 µg/mL | B5
